What was measured:
HeLa Kyoto [1] = assay: solubility change mitosis vs G1/S (difference of NP-40 vs SDS log2 ratios) (log2 ratio difference); higher = more soluble in mitosis
HeLa Kyoto [2] = assay: thermal stability score vs G1/S (z-score of summed log2 fold changes over temperatures); higher = more thermally stable than in G1/S
HeLa Kyoto [3] = assay: solubility in G1/S (NP-40 vs SDS abundance) (log2 ratio); higher = more soluble; details: cell cycle stage: G1/S
HeLa Kyoto [4] = assay: melting temperature (median over replicates), in situ; higher = more thermally stable
[5] = cell cycle stage: early G1 (4.5 h after nocodazole release)
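Throughout, for melting temperature (median over replicates), in situ: HeLa Kyoto cells synchronized by double thymidine or nocodazole block, proteins quantified by TMT10plex mass spectrometry, three independent biological replicates.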
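Throughout, for solubility change mitosis vs G1/S (difference of NP-40 vs SDS log2 ratios): synchronized HeLa Kyoto cells (double thymidine block for G1/S, nocodazole release for mitosis), protein amounts in NP-40 versus SDS lysates quantified by mass spectrometry, three biological replicates.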
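Throughout, for solubility in G1/S (NP-40 vs SDS abundance): HeLa Kyoto cells arrested at G1/S by double thymidine block, proteins quantified by TMT10plex mass spectrometry in mild NP-40 versus SDS extracts, three biological replicates.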
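Throughout, for thermal stability score vs G1/S (z-score of summed log2 fold changes over temperatures): synchronized HeLa Kyoto cells, proteins quantified by TMT10plex mass spectrometry, three biological replicates, mitosis taken 0.5 h after nocodazole release, G1/S directly after double thymidine block.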

SLC7A1, sequence (chain, as listed by the source): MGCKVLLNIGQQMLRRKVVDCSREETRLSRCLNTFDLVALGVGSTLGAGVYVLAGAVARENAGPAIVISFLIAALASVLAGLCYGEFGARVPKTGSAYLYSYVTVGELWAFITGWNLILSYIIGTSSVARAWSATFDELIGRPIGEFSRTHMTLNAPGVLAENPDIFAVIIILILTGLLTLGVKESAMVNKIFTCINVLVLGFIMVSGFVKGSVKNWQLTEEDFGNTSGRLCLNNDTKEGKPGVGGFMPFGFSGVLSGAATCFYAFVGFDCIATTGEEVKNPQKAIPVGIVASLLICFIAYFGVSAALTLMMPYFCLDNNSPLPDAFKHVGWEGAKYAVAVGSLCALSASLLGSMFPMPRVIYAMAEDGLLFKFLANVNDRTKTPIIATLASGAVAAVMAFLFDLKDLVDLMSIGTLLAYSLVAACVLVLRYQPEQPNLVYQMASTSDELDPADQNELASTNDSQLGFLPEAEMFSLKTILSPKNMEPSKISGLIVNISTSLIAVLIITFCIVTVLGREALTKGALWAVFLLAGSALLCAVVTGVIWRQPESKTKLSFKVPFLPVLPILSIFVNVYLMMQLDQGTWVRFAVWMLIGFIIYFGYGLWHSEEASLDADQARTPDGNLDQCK

Row | Substance | solubility change mitosis (log2) (HeLa Kyoto [1]) | thermal stability score (HeLa Kyoto [2]; [5]) | thermal stability score (HeLa Kyoto [2]; cell cycle stage: mitosis) | solubility in G1/S (log2) (HeLa Kyoto [3]) | melting temperature (HeLa Kyoto [4]; cell cycle stage: G1/S) | melting temperature (HeLa Kyoto [4]; cell cycle stage: mitosis)
1 | MAVPGDAARVRDKPVHSGVSQAPTAGRDCHHRADPASPRDSGCRGCWGDLVLQPLRSSRKLSSALCAGSLSFLLALLVRLVRGEVGCDLEQCKEAAAAEEEEAAPGAEGGVFPGPRGGAPGGGARLSPWLQPSALLFSLLCAFFWMGLYLLRAGVRLPLAVALLAACCGGEALVQIGLGVGEDHLLSLPAAGVVLSCLAAATWLVLRLRLGVLMIALTSAVRTVSLISLERFKVAWRPYLAYLAGVLGILLARYVEQILPQSAEAAPREHLGSQLIAGTKEDIPVFKRRRRSSSVVSAEMSGCSSKSHRRTSLPCIPREQLMGHSEWDHKRGPRGSQSSGTSITVDIAVMGEAHGLITDLLADPSLPPNVCTSLRAVSNLLSTQLTFQAIHKPRVNPVTSLSENYTCSDSEESSEKDKLAIPKRLRRSLPPGLLRRVSSTWTTTTSATGLPTLEPAPVRRDRSTSIKLQEAPSSSPDSWNNPVMMTLTKSRSFTSSYAISAANHVKAKKQSRPGALAKISPLSSPCSSPLQGTPASSLVSKISAVQFPESADTTAKQSLGSHRALTYTQSAPDLSPQILTPPVICSSCGRPYSQGNPADEPLERSGVATRTPSRTDDTAQVTSDYETNNNSDSSDIVQNEDETECLREPLRKASACSTYAPETMMFLDKPILAPEPLVMDNLDSIMEQLNTWNFPIFDLVENIGRKCGRILSQVSYRLFEDMGLFEAFKIPIREFMNYFHALEIGYRDIPYHNRIHATDVLHAVWYLTTQPIPGLSTVINDHGSTSDSDSDSGFTHGHMGYVFSKTYNVTDDKYGCLSGNIPALELMALYVAAAMHDYDHPGRTNAFLVATSAPQAVLYNDRSVLENHHAAAAWNLFMSRPEYNFLINLDHVEFKHFRFLVIEAILATDLKKHFDFVAKFNGKVNDDVGIDWTNENDRLLVCQMCIKLADINGPAKCKELHLQWTDGIVNEFYEQGDEEASLGLPISPFMDRSAPQLANLQESFISHIVGPLCNSYDSAGLMPGKWVEDSDESGDTDDPEEEEEEAPAPNEEETCENNESPKKKTFKRRKIYCQITQHLLQNHKMWKKVIEEEQRLAGIENQSLDQTPQSHSSEQIQAIKEEEEEKGKPRGEEIPTQKPDQ [PDE3A] | -0.179 | -2.5 | -4.37 | 0.0669 | 51.8 °C | 49.6 °C
2 | RAB1B | -0.0321 | -0.394 | -2.04 | 0.0965 | 57.8 °C | 58 °C
3 | MSDSWVPNSASGQDPGGRRRAWAELLAGRVKREKYNPERAQKLKESAVRLLRSHQDLNALLLEVEGPLCKKLSLSKVIDCDSSEAYANHSSSFIGSALQDQASRLGVPVGILSAGMVASSVGQICTAPAETSHPVLLTVEQRKKLSSLLEFAQYLLAHSMFSRLSFCQELWKIQSSLLLEAVWHLHVQGIVSLQELLESHPDMHAVGSWLFRNLCCLCEQMEASCQHADVARAMLSDFVQMFVLRGFQKNSDLRRTVEPEKMPQVTVDVLQRMLIFALDALAAGVQEESSTHKIVRCWFGVFSGHTLGSVISTDPLKRFFSHTLTQILTHSPVLKASDAVQMQREWSFARTHPLLTSLYRRLFVMLSAEELVGHLQEVLETQEVHWQRVLSFVSALVVCFPEAQQLLEDWVARLMAQAFESCQLDSMVTAFLVVRQAALEGPSAFLSYADWFKASFGSTRGYHGCSKKALVFLFTFLSELVPFESPRYLQVHILHPPLVPGKYRSLLTDYISLAKTRLADLKVSIENMGLYEDLSSAGDITEPHSQALQDVEKAIMVFEHTGNIPVTVMEASIFRRPYYVSHFLPALLTPRVLPKVPDSRVAFIESLKRADKIPPSLYSTYCQACSAAEEKPEDAALGVRAEPNSAEEPLGQLTAALGELRASMTDPSQRDVISAQVAVISERLRAVLGHNEDDSSVEISKIQLSINTPRLEPREHMAVDLLLTSFCQNLMAASSVAPPERQGPWAALFVRTMCGRVLPAVLTRLCQLLRHQGPSLSAPHVLGLAALAVHLGESRSALPEVDVGPPAPGAGLPVPALFDSLLTCRTRDSLFFCLKFCTAAISYSLCKFSSQSRDTLCSCLSPGLIKKFQFLMFRLFSEARQPLSEEDVASLSWRPLHLPSADWQRAALSLWTHRTFREVLKEEDVHLTYQDWLHLELEIQPEADALSDTERQDFHQWAIHEHFLPESSASGGCDGDLQAACTILVNALMDFHQSSRSYDHSENSDLVFGGRTGNEDIISRLQEMVADLELQQDLIVPLGHTPSQEHFLFEIFRRRLQALTSGWSVAASLQRQRELLMYKRILLRLPSSVLCGSSFQAEQPITARCEQFFHLVNSEMRNFCSHGGALTQDITAHFFRGLLNACLRSRDPSLMVDFILAKCQTKCPLILTSALVWWPSLEPVLLCRWRRHCQSPLPRELQKLQEGRQFASDFLSPEAASPAPNPDWLSAAALHFAIQQVREENIRKQLKKLDCEREELLVFLFFFSLMGLLSSHLTSNSTTDLPKAFHVCAAILECLEKRKISWLALFQLTESDLRLGRLLLRVAPDQHTRLLPFAFYSLLSYFHEDAAIREEAFLHVAVDMYLKLVQLFVAGDTSTVSPPAGRSLELKGQGNPVELITKARLFLLQLIPRCPKKSFSHVAELLADRGDCDPEVSAALQSRQQAAPDADLSQEPHLF [FANCA] | 0.00288 | 0.523 | 1.07 | -0.182 | 47.9 °C | 48.3 °C
4 | MAGPGWGPPRLDGFILTERLGSGTYATVYKAYAKKDTREVVAIKCVAKKSLNKASVENLLTEIEILKGIRHPHIVQLKDFQWDSDNIYLIMEFCAGGDLSRFIHTRRILPEKVARVFMQQLASALQFLHERNISHLDLKPQNILLSSLEKPHLKLADFGFAQHMSPWDEKHVLRGSPLYMAPEMVCQRQYDARVDLWSMGVILYEALFGQPPFASRSFSELEEKIRSNRVIELPLRPLLSRDCRDLLQRLLERDPSRRISFQDFFAHPWVDLEHMPSGESLGRATALVVQAVKKDQEGDSAAALSLYCKALDFFVPALHYEVDAQRKEAIKAKVGQYVSRAEELKAIVSSSNQALLRQGTSARDLLREMARDKPRLLAALEVASAAMAKEEAAGGEQDALDLYQHSLGELLLLLAAEPPGRRRELLHTEVQNLMARAEYLKEQVKMRESRWEADTLDKEGLSESVRSSCTLQ [ULK3] | -0.125 | -0.375 | -0.212 | 0.0298 | 49.9 °C | 49.6 °C
5 | MAKLLSCVLGPRLYKIYRERDSERAPASVPETPTAVTAPHSSSWDTYYQPRALEKHADSILALASVFWSISYYSSPFAFFYLYRKGYLSLSKVVPFSHYAGTLLLLLAGVACLRGIGRWTNPQYRQFITILEATHRNQSSENKRQLANYNFDFRSWPVDFHWEEPSSRKESRGGPSRRGVALLRPEPLHRGTADTLLNRVKKLPCQITSYLVAHTLGRRMLYPGSVYLLQKALMPVLLQGQARLVEECNGRRAKLLACDGNEIDTMFVDRRGTAEPQGQKLVICCEGNAGFYEVGCVSTPLEAGYSVLGWNHPGFAGSTGVPFPQNEANAMDVVVQFAIHRLGFQPQDIIIYAWSIGGFTATWAAMSYPDVSAMILDASFDDLVPLALKVMPDSWRGLVTRTVRQHLNLNNAEQLCRYQGPVLLIRRTKDEIITTTVPEDIMSNRGNDLLLKLLQHRYPRVMAEEGLRVVRQWLEASSQLEEASIYSRWEVEEDWCLSVLRSYQAEHGPDFPWSVGEDMSADGRRQLALFLARKHLHNFEATHCTPLPAQNFQMPWHL [ABHD16A] | -0.122 | 0.0741 | -0.0149 | -0.125 | 51 °C | 51.3 °C
6 | MLRLVPTGARAIVDMSYARHFLDFQGSAIPQAMQKLVVTRLSPNFREAVTLSRDCPVPLPGDGDLLVRNRFVGVNASDINYSAGRYDPSVKPPFDIGFEGIGEVVALGLSASARYTVGQAVAYMAPGSFAEYTVVPASIATPVPSVKPEYLTLLVSGTTAYISLKELGGLSEGKKVLVTAAAGGTGQFAMQLSKKAKCHVIGTCSSDEKSAFLKSLGCDRPINYKTEPVGTVLKQEYPEGVDVVYESVGGAMFDLAVDALATKGRLIVIGFISGYQTPTGLSPVKAGTLPAKLLKKSASVQGFFLNHYLSKYQAAMSHLLEMCVSGDLVCEVDLGDLSPEGRFTGLESIFRAVNYMYMGKNTGKIVVELPHSVNSKL [ZADH2] | -0.199 | 0.549 | 1.57 | 0.198 | 52.9 °C | 53.5 °C
7 | MRDRTHELRQGDDSSDEEDKERVALVVHPGTARLGSPDEEFFHKVRTIRQTIVKLGNKVQELEKQQVTILATPLPEESMKQELQNLRDEIKQLGREIRLQLKAIEPQKEEADENYNSVNTRMRKTQHGVLSQQFVELINKCNSMQSEYREKNVERIRRQLKITNAGMVSDEELEQMLDSGQSEVFVSNILKDTQVTRQALNEISARHSEIQQLERSIRELHDIFTFLATEVEMQGEMINRIEKNILSSADYVERGQEHVKTALENQKKARKKKVLIAICVSITVVLLAVIIGVTVVG [STX4] | 0.0104 | 0.652 | 0.313 | 0.326 | 51.2 °C | 50.5 °C
8 | SLC7A1 | -0.171 | -2.64 | -4.52 | -0.215 | 61.5 °C | 60.9 °C
9 | MAGPRVEVDGSIMEGGGQILRVSTALSCLLGLPLRVQKIRAGRSTPGLRPQHLSGLEMIRDLCDGQLEGAEIGSTEITFTPEKIKGGIHTADTKTAGSVCLLMQVSMPCVLFAASPSELHLKGGTNAEMAPQIDYTVMVFKPIVEKFGFIFNCDIKTRGYYPKGGGEVIVRMSPVKQLNPINLTERGCVTKIYGRAFVAGVLPFKVAKDMAAAAVRCIRKEIRDLYVNIQPVQEPKDQAFGNGNGIIIIAETSTGCLFAGSSLGKRGVNADKVGIEAAEMLLANLRHGGTVDEYLQDQLIVFMALANGVSRIKTGPVTLHTQTAIHFAEQIAKAKFIVKKSEDEEDAAKDTYIIECQGIGMTNPNL [RTCA] | -0.173 | -1.26 | -1.94 | 0.177 | 54.4 °C | 54.4 °C
10 | MAGRGGAARPNGPAAGNKICQFKLVLLGESAVGKSSLVLRFVKGQFHEYQESTIGAAFLTQTVCLDDTTVKFEIWDTAGQERYHSLAPMYYRGAQAAIVVYDITNTDTFARAKNWVKELQRQASPNIVIALAGNKADLASKRAVEFQEAQAYADDNSLLFMETSAKTAMNVNEIFMAIAKKLPKNEPQNATGAPGRNRGVDLQENNPASRSQCCSN [RAB5C] | -0.161 | -2.16 | -3.11 | 0.382 | 58.7 °C | 59.4 °C
11 | SVEP1 | -0.0333 | 1.39 | 1.6 | -0.163 | 54.1 °C | 55.1 °C
12 | MGDERPHYYGKHGTPQKYDPTFKGPIYNRGCTDIICCVFLLLAIVGYVAVGIIAWTHGDPRKVIYPTDSRGEFCGQKGTKNENKPYLFYFNIVKCASPLVLLEFQCPTPQICVEKCPDRYLTYLNARSSRDFEYYKQFCVPGFKNNKGVAEVLQDGDCPAVLIPSKPLARRCFPAIHAYKGVLMVGNETTYEDGHGSRKNITDLVEGAKKANGVLEARQLAMRIFEDYTVSWYWIIIGLVIAMAMSLLFIILLRFLAGIMVWVMIIMVILVLGYGIFHCYMEYSRLRGEAGSDVSLVDLGFQTDFRVYLHLRQTWLAFMIILSILEVIIILLLIFLRKRILIAIALIKEASRAVGYVMCSLLYPLVTFFLLCLCIAYWASTAVFLSTSNEAVYKIFDDSPCPFTAKTCNPETFPSSNESRQCPNARCQFAFYGGESGYHRALLGLQIFNAFMFFWLANFVLALGQVTLAGAFASYYWALRKPDDLPAFPLFSAFGRALRYHTGSLAFGALILAIVQIIRVILEYLDQRLKAAENKFAKCLMTCLKCCFWCLEKFIKFLNRNAYIMIAIYGTNFCTSARNAFFLLMRNIIRVAVLDKVTDFLFLLGKLLIVGSVGILAFFFFTHRIRIVQDTAPPLNYYWVPILTVIVGSYLIAHGFFSVYGMCVDTLFLCFLEDLERNDGSAERPYFMSSTLKKLLNKTNKKAAES [SLC44A2] | 0.0871 | -1.29 | -2.25 | 0.0147 | 60.2 °C | 60.1 °C

From the supplement of paper PMC5998384
